B1: library; numbered along this chain (parent)
chain: MEVVDPQQLGMFTEGELMSVGMDTFIHRIDSTEVIYQPRRKRAKLIGKYLMGDLLGEGSYGKVKEVLDSETLCRRAVKILKKKKLRRIPNGEANVKKEIQLLRRLRHKNVIQLVDVLYNEEKQKMYMVMEYCVCGMQEMLDSVPEKRFPVCQAHGYFCQLIDGLEYLHSQGIVHKDIKPGNLLLTTGGTLKISDLGVAEALHPFAADDTCRTSQGSPAFQPPEIANGLDTFSGFKVDIWSAGVTLYNITTGLYPFEGDNIYKLFENIGKGSYAIPGDCGPPLSDLLKGMLEYEPAKRFSIRQIRQHSWFRKKHPPAEAPVPIPPSPDTKDRWRSMTVVPYLEDLHGADEDEDLFDIEDDIIYTQDFTVPGQVPEEEASHNGQRRGLPKAVCMNGTEAAQLSTKSRAEGRAPNPARKACSASSKIRRLSACKQQ

Variants of: B1
Experiment: STK11 functional score (HeLa growth suppression), rescaled enrichment; synonymous median = 1, nonsense median = 0 (normalised score)
Conditions: with HeLa; variant type: missense
In short: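 Functional scores are post/pre-selection log ratios corrected to wild type, rescaled to synonymous and nonsense medians, merged over codons and replicate transfections, and given bootstrapped error. They come from POPCode libraries of codon-optimised STK11 integrated by Bxb1 at an AAVS1 landing pad in HeLa, three regions each transfected three times, with BFP-negative, mCherry-positive integrants sorted by FACS and tiled gDNA amplicons sequenced on NextSeq.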

STK11 functional score: each site, then its substitutions
H379: P 1.46, G 1.11, A 1.38, L 1.09, R 1.36, W 0.788, Y 1.39, I 1.53, K 1.37, D 1.18, M 1.52, T 1.31, S 1.55, F 1.1, V 1.46, E 0.586
E376: S 1.57, V 1.07, T 1.55, Y 1.56, R 1.39, W 0.781
G381: S 1.36, A 1.09, D 1.57, R 1.48, K 1.59, P 1.61, H 1.6, I 1.57, V 0.684, F 1.13, L 1.24, C 1.1, T 1.6, Y 1.37, M 1.57, W 1.05
Q382: R 1.48, Y 1.28, C 1.15, A 1.38, F 1.14, L 1.34, E 1.2, D 1.47, M 1.52, S 1.5, K 1.11, P 1.35, T 1.29, V 1.12, H 1.15, G 1.4, I 1.31, W 1.06
N380: T 1.31, I 1.04, F 1.06, L 0.908, Q 1.47, Y 1.14, W 1.04, C 1.57, H 1.48, M 1.55, S 0.982, V 1.12, P 1.59, R 1.56, A 1.51, G 1.57, K 1.42, E 1.48
A377: E -0.00596, P 1.4, L 1.04, M 1.51, G 1.01, R 1.6, H 0.0602, K 1.63, Q 1.59, V 1.31, I 1.55, Y 1.49, T 1.59, S 1.24, W 0.843
L386: A 1.6, F 0.706, E 1.55, H 0.959, G 1.19, I 1.14, C 1.31
S378: N 1.56, R 1.16, F 1.41, T 1.4, G 0.914, A 1.44, Y 1.35, C 1.42, M 1.11, Q 0.786, P 1.38, L 0.82, V 1.04, W 0.76, D 1.5, K 1.6, I 1.26
G385: D 1.3, Q 1.57, M 1.59, R 1.13, P 1.26, N 1.59, F 1.36, K 1.6, H 1.56, E 1.41, L 0.869, I 1.45, S 1.51, V 0.433, A 1.46, W 1.28, T 1.58
R384: W 1.35, V 1.22, E 1.53, Y 1.53, G 1.28, T 1.15, M 1.36, D 1.2, C 1.14, P 1.56, L 1.43, H 1.47, I 1.06, A 1.33, S 1.53, F 1.55, N 1.54, Q 1.62
R383: S 1.3, V 1.25, G 1.11, N 1.5, W 0.781, E 1.57, H 1.57, A 1.44, F 1.2, K 1.57, Q 1.51, D 1.49, I 1.57, T 1.56, C 1.22, M 1.59, L 1.42, Y 1.25, P 1.31
